According to US20170165373A1 (Amgen, published 2017):
Positions count from the first letter of the chain named. In names and notes the source's numbering stands.

B1: 30E1 (antibody, V domains shown)
VH: EVQLLESGGGLVQPGGSLRLSCAASGFTFSSHAMSWVRQAPGKGLEWVSAISGGDGNTYYADSVKGRFAISRDNSKNVVYLQMNSLRAEDTAVYFCAKDLVGVVAGYYYYFGMDVWGQGTTVTVSS
VL: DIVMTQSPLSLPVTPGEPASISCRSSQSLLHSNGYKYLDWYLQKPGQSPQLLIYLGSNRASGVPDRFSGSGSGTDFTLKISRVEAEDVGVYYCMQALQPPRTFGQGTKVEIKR
notes: Tested as purified hybridoma IgG2 or IgG4; also called Ab-9; 30E1.1
B2: 32H3 (antibody, V domains shown)
VH: EVQLLESGGGLVQPGGSLRLSCAASGFTFSSYAMSWVRQAPGKGLKWVSAISGGAGNTYYADSVKGRFTISRDISKSTVYLQMTSLRAEDTAIYYCAKDGVGTTGGYFYYHGMDVWGQGTTVTVSS
VL: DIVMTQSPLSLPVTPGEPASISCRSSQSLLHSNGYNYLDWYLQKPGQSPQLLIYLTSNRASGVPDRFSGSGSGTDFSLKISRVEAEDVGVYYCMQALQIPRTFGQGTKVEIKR
notes: Tested as purified hybridoma IgG2 or IgG4; also called Ab-12; 32H3.1
B3: 33C7 (antibody, V domains shown)
VH: EVQLLESGGALVQPGGSLRLSCAASGFTFSSYAMNWVRQAPGKGLEWVSAISVGGDTYYADSVKGRFTISRDNSKNTLYLHVNSLSAEDSAVYYCAKDQVTLVRGVWYYYGLDVWGQGTTVTVSS
VL: VIVLIQSPLSLPVTPGEPASISCRSSQSLLHSNGNNYLDWYLQKPGQSPHLLISLGSNRTSGVPDRFSGSGSGTDFTLKISRVEAEDVGFYYCMQALQPPRRFGQGTKLEIKR
notes: Tested as purified hybridoma IgG2 or IgG4; also called Ab-11; 33C7_HC#1
B4: 32B5 (antibody, V domains shown)
VH: B3 VH
VL: B3 VL
notes: 32B5.1 was purified hybridoma IgG2 or IgG4; later converted to human IgG1; also called Ab-10; 32B5.1
B5: 29C12 (antibody, V domains shown)
VH: B3 VH with H81Q, V82M, S86R, S90T, L102M
VL: B3 VL with V1D, L4M, F90V
notes: also called Ab-8; 29C12.1
B6: 35D2 (antibody, V domains shown)
VH: B3 VH with D56G, S86R, S90T, L102M
VL: B3 VL
notes: also called Ab-15; 35D2.1
B7: 37B2 (antibody, V domains shown)
VH: B3 VH with S31N
VL: B3 VL
notes: Tested as purified hybridoma IgG2 or IgG4; also called Ab-16; 37B2.1
B8: 33D4 (antibody, V domains shown)
VH: QVQLQQSGPGLVKPSQTLSLTCAISGDSVSSTNVAWNWIRQSPSRGLEWLGGTFYRSNWYNDYAISVKSRITINPDTSKNQFSLQLNSVTPEDTAVYYCARFYSWNSYFDYWGQGILVTVSS
VL: QPVLTQPPSASASLGASVTLTCTLSSGYSNYKVDWYQHRPGKGPRFVMRVGTGGIVGSKGDGIPDRFSVLGSGLNRYLTIKNIQEEDESDFHCGADHGSETNFVYVFGTGTKVTVLG
notes: Tested as purified hybridoma IgG2 or IgG4; also called Ab-14; 33D4.1
B9: 40D7 (antibody, V domains shown)
VH: B3 VH with H81Q, V82M, S86R, S90T, L102M
VL: B3 VL with V1D, L4M, Y37F, F67L, F90I, Q98R
notes: also called Ab-17; 40D7.1
B10: 1E1-PEG4-Mal-DM4 (antibody drug conjugate) (other)
VH: QVQLVQSGAEVKKPGASVKVSCKASGYTFTGHYIHWVRQAPGQGLEWMGWIYPNSGGTNYAQKFQGRVTMTRDTSISTAYMELSRLRSDDSAVYYCAREGMVTGDYYYYRMDVWGQGTTVIVSS
VL: B8 VL with T23S, H38Q, T52I, E100G, T101N
modifications: antibody carries DM4 through the PEG4-Mal linker; sites not stated
B11: 1E1-MCC-DM1 (antibody drug conjugate) (other)
VH: B10 VH
VL: B8 VL with T23S, H38Q, T52I, E100G, T101N
modifications: antibody carries DM1 through the MCC linker; sites not stated
B12: 32B5-MCC-DM1 (antibody drug conjugate) (other)
VH: B3 VH
VL: B3 VL
modifications: antibody carries DM1 through the MCC linker; sites not stated
B13: 2A1 Covariance 4 (2A1_D84N + C107T) (antibody, human IgG1, lambda, V domains shown)
VH: EVQLVESGGGLVKPGRSLRLSCTASGFTFGDYALSWFRQAPGKGLEWVGVSRSKAYGGTTDYAASVKGRFTISRDNSKSFAYLQMNSLKTEDTAVYYCTSSGYSSGWTPFDYWGQGTLVTVSS
VL: not shown
B14: 2A1 Covariance 6 (2A1_C107A) (antibody, human IgG1, lambda, V domains shown)
VH: B13 VH with N76D, T99A
VL: not shown
B15: 2A1 Covariance 5 (2A1_F88T + C107T) (antibody, human IgG1, lambda, V domains shown)
VH: B13 VH with N76D, F80T
VL: not shown
B16: 2A1 Covariance 7 (2A1_S108K + C107T) (antibody, human IgG1, lambda, V domains shown)
VH: B13 VH with N76D, S100K
VL: not shown
B17: 2A1 Covariance 11 (2A1_F44V + C107A + S108K) (antibody, human IgG1, lambda, V domains shown)
VH: B13 VH with F37V, N76D, T99A, S100K
VL: not shown
B18: 2A1 Covariance 13 (2A1_F44V + F88T + C107A) (antibody, human IgG1, lambda, V domains shown)
VH: B13 VH with F37V, N76D, F80T, T99A
VL: not shown
B19: 2A1 Covariance 14 (2A1_T24A + F44V + F88T + C107A) (antibody, human IgG1, lambda, V domains shown)
VH: B13 VH with T23A, F37V, N76D, F80T, T99A
VL: not shown
B20: 2A1 Covariance 12 (2A1_T24A + F44V + F88T + C107T) (antibody, human IgG1, lambda, V domains shown)
VH: B13 VH with T23A, F37V, N76D, F80T
VL: not shown
B21: 32B5 (N69Q) (antibody, human IgG1, kappa, V domains shown)
VH: B3 VH
VL: B3 VL with N58Q
notes: also called 32B5 (LC: N69Q); P70169.3
B22: 32B5 (T71A) (antibody, human IgG1, kappa, V domains shown)
VH: B3 VH
VL: B3 VL with T60A
notes: also called 32B5 (LC: T71A); P70170.3

Biological target: T1, human BCMA (huBCMA), full length, on cells (human, UniProt Q02223 1-184)
T1 construct: also called native huBCMA; B-cell maturation antigen
T1 chain: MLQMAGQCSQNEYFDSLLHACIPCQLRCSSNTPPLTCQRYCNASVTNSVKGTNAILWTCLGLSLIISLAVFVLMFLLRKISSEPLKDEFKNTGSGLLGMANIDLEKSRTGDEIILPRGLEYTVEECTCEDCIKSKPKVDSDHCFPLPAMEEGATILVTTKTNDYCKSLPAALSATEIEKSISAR
Test: FACS

Row | Binder | MFI
1 | B1 | 109000
2 | B2 | 97700
3 | B3 | 132000
4 | B4 | 137000
5 | B5 | 82600
6 | B6 | 129000
7 | B7 | 83700

Biological target: T2, cynomolgus BCMA, on transiently transfected 293T cells (cynomolgus (Macaca fascicularis), UniProt Q02223 1-184 (human entry))
T2 construct: also called cyno BCMA
Test: FACS

T2 sequence (Q02223 other isoform, or with tags, fused parts or gaps): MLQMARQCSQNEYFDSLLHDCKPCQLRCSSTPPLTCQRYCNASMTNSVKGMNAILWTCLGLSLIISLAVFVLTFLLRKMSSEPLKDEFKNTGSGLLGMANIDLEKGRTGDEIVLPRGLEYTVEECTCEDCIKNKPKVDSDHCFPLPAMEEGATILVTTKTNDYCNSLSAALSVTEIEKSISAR

Row | Binder | MFI
8 | B1 | 78500
9 | B2 | 51200
10 | B3 | 238000
11 | B4 | 259000
12 | B5 | 97300
13 | B6 | 198000
14 | B7 | 136000

Biological target: T3, TACI, full length, on transiently transfected cells (human, UniProt O14836 1-293)
T3 construct: whole, on cells; also called huTACI
T3 sequence (looked up): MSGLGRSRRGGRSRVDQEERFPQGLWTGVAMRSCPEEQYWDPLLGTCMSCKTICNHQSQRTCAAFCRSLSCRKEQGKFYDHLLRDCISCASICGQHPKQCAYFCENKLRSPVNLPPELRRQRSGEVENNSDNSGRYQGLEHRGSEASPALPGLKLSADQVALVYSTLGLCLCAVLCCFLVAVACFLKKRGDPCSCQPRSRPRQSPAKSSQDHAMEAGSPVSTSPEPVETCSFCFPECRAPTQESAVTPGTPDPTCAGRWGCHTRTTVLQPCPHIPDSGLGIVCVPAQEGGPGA
Test: FACS

Row | Binder | MFI | binding result
15 | B1 | 555 | no binding
16 | B2 | 1360 | no binding
17 | B3 | 1890 | no binding
18 | B4 | 274 | no binding
19 | B5 | 256 | no binding
20 | B6 | 506 | no binding
21 | B7 | 1040 | no binding

Biological target: T1, human BCMA (huBCMA), full length, on …
Test: FACS
Remark: another data set of the same source

Row | Binder | MFI
22 | B8 | 89900
23 | B9 | 36300

Biological target: T2, cynomolgus BCMA, on transiently …
Test: FACS
Remark: another data set of the same source

Row | Binder | MFI
24 | B8 | 19400
25 | B9 | 39300

Biological target: T3, TACI, full length, on transiently …
Test: FACS
Remark: another data set of the same source

Row | Binder | MFI | binding result
26 | B8 | 261 | no binding
27 | B9 | 1390 | no binding

Biological target: T4, BAFF-R, full length, on transiently transfected cells (human, UniProt Q96RJ3 1-184)
T4 construct: whole, on cells; also called huBAFF-R
T4 sequence (looked up): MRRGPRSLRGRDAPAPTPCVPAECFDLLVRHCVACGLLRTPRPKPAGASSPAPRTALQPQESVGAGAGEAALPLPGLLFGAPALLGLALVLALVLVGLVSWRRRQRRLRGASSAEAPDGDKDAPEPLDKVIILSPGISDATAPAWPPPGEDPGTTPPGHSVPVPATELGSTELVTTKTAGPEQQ
Test: FACS

Row | Binder | MFI | binding result
28 | B8 | 723 | no binding

Biological target: T2, cynomolgus BCMA, on transiently …
Test: FACS O/N

Row | Binder | MFI
29 | B1 | 130
30 | B2 | 122
31 | B3 | 109
32 | B4 | 108
33 | B5 | 110
34 | B6 | 152
35 | B7 | 104

Biological target: T1, human BCMA (huBCMA), full length, on …
Test: cell-based or functional assay

Row | Binder | cell viability IC50 (CellTiter-Glo, 96 h), H929 cells [nM] | H929 cell growth inhibition IC50 (CellTiter-Glo, 96 h) [nM]
36 | B10 | 0.68 | –
37 | B11 | 0.63 | –
38 | B12 | – | 0.506

Biological target: T1, human BCMA (huBCMA), full length, on …
Test: cell-based or functional assay
Remark: another data set of the same source

Row | Binder | ADCC EC50 [µg/mL]
39 | B13 | 0.028
40 | B14 | 0.0169
41 | B15 | 0.016
42 | B16 | 0.0191
43 | B17 | 0.364
44 | B18 | 0.0327
45 | B19 | 0.0417
46 | B20 | 0.111

Biological target: T1, human BCMA (huBCMA), full length, on …
Test: FACS, H929 cells

Row | Binder | binding result
47 | B21 | binds
48 | B22 | binds

Biological target: T1, human BCMA (huBCMA), full length, on …
Test: APRIL blocking FACS
Parameters: concentration or dose not given beside the values

Row | Binder | % Inhibition n=1 [%] | % Inhibition n=2 [%] | Avg. % Inhibition [%]
49 | B1 | 31 | 46 | 38
50 | B2 | 20 | 47 | 33
51 | B3 | 68 | 88 | 78
52 | B4 | 87 | 116 | 101
53 | B5 | 30 | 62 | 46
54 | B6 | 57 | 82 | 70
55 | B7 | 37 | 58 | 48

Biological target: T1, human BCMA (huBCMA), full length, on …
Test: FACS on H929 cells, native BCMA, relative binding, indirect

Row | Binder | EC50 [nM]
56 | B12 | 7
57 | B4 | 4.2
